Our source for the other: Specificity Factor values is paper PMC3834312.

What all share (test): MODified Histone Peptide Array
For assay [1], the target named is H2A K13ac (histone peptide array spots containing the mark). The conditions noted are these: whole cell lysate from HEK293 cells transiently transfected; ECL plus western blot detecting reagent; read off a plot. Background: In western blotting, separated proteins are transferred to a membrane and probed.
Assay [2] addresses H2A K9ac (histone peptide array spots containing the mark). The conditions noted are these: whole cell lysate from HEK293 cells transiently transfected; ECL plus western blot detecting reagent; read off a plot.
Assay [3] concerns the target H4 K12ac (histone peptide array spots containing the mark). The conditions noted are these: whole cell lysate from HEK293 cells transiently transfected; ECL plus western blot detecting reagent; parent: est. 8.1; read off a plot.
Assay [4] addresses H4 K5ac (histone peptide array spots containing the mark). The conditions noted are these: whole cell lysate from HEK293 cells transiently transfected; ECL plus western blot detecting reagent; parent: est. 9.4; read off a plot.
For assay [5], the target named is H4 K8ac (histone peptide array spots containing the mark). The conditions noted are these: whole cell lysate from HEK293 cells transiently transfected; ECL plus western blot detecting reagent; parent: est. 10; read off a plot.
Assay [6] concerns the target H4 R19me2s (histone peptide array spots containing the mark). The conditions noted are these: whole cell lysate from HEK293 cells transiently transfected; ECL plus western blot detecting reagent; read off a plot.
For assay [7], the target named is H4 R24me2a (histone peptide array spots containing the mark). The conditions noted are these: whole cell lysate from HEK293 cells transiently transfected; ECL plus western blot detecting reagent; read off a plot.
Assay [8] deals with H4 R3me2a (histone peptide array spots containing the mark). The conditions noted are these: whole cell lysate from HEK293 cells transiently transfected; ECL plus western blot detecting reagent; parent: est. 5.9; read off a plot.
The target in assay [9] is H4 R3me2s (histone peptide array spots containing the mark). The conditions noted are these: whole cell lysate from HEK293 cells transiently transfected; ECL plus western blot detecting reagent; parent: est. 5.9; read off a plot.
Assay [10] has as its target H4 S1P (histone peptide array spots containing the mark). The conditions noted are these: whole cell lysate from HEK293 cells transiently transfected; ECL plus western blot detecting reagent; parent: est. 5.3; read off a plot.

For the substance “BRD4-SF-FLAG (BRD4 short isoform with a single FLAG epitope tag at the C-terminus) (from UniProt O60885-2) Y433A”, the other: Specificity Factor in assay [1] was 4.5; in assay [2], 4.4; in assay [3], 6.1; in [4], 11; in assay [5], 13; in assay [6], 3.4. Further, the other: Specificity Factor in assay [7] was 3.9; in assay [8] it was 6.7; in assay [9] it was 5.5; in assay [10], 3.4.
